Measured values taken from article PMC8980529, “Complement Factor H-Related Proteins FHR1 and FHR5 Interact With Extracellular Matrix Ligands, Reduce Factor H Regulatory Activity and Enhance Complement Activation” (Frontiers in Immunology, 2022).

B1: Recombinant human factor H-related protein 5 (natural protein, UniProt Q9BXR6 19-569, looked up)
chain: EGTLCDFPKIHHGFLYDEEDYNPFSQVPTGEVFYYSCEYNFVSPSKSFWTRITCTEEGWSPTPKCLRMCSFPFVKNGHSESSGLIHLEGDTVQIICNTGYSLQNNEKNISCVERGWSTPPICSFTKGECHVPILEANVDAQPKKESYKVGDVLKFSCRKNLIRVGSDSVQCYQFGWSPNFPTCKGQVRSCGPPPQLSNGEVKEIRKEEYGHNEVVEYDCNPNFIINGPKKIQCVDGEWTTLPTCVEQVKTCGYIPELEYGYVQPSVPPYQHGVSVEVNCRNEYAMIGNNMITCINGIWTELPMCVATHQLKRCKIAGVNIKTLLKLSGKEFNHNSRIRYRCSDIFRYRHSVCINGKWNPEVDCTEKREQFCPPPPQIPNAQNMTTTVNYQDGEKVAVLCKENYLLPEAKEIVCKDGRWQSLPRCVESTAYCGPPPSINNGDTTSFPLSVYPPGSTVTYRCQSFYKLQGSVTVTCRNKQWSEPPRCLDPCVVSEENMNKNNIQLKWRNDGKLYAKTGDAVEFQCKFPHKAMISSPPFRAICQEGKFEYPICE
notes: complement factor H-related protein 5 (FHR5), human, recombinant; called 'full-length FHR5' in the discussion; Commercial recombinant protein; The discussion speaks of 'the dimerized full-length protein'; also called FHR5; full-length FHR5; source: bought: Novoprotein via Gentaur (recombinant)
B2: Human vitronectin (natural protein, UniProt P04004 20-478, looked up)
chain: DQESCKGRCTEGFNVDKKCQCDELCSYYQSCCTDYTAECKPQVTRGDVFTMPEDEYTVYDDGEEKNNATVHEQVGGPSLTSDLQAQSKGNPEQTPVLKPEEEAPAPEVGASKPEGIDSRPETLHPGRPQPPAEEELCSGKPFDAFTDLKNGSLFAFRGQYCYELDEKAVRPGYPKLIRDVWGIEGPIDAAFTRINCQGKTYLFKGSQYWRFEDGVLDPDYPRNISDGFDGIPDNVDAALALPAHSYSGRERVYFFKGKQYWEYQFQHQPSQEECEGSSLSAVFEHFAMMQRDSWEDIFELLFWGRTSAGTRQPQFISRDWHGVPGQVDAAMAGRIYISGMAPRPSLAKKQRFRHRNRKGYRSQRGHSRGRNQNSRRPSRATWLSLFSSEESNLGANNYDDYRMDWLVPATCEPIQSVFFFSGDKYYRVNLRTRRVDTVDPPYPRSIAQYWLGCPAPGHL
notes: vitronectin, human; source: bought: Sigma-Aldrich
B3: Recombinant human factor H-related protein 1 (natural protein, UniProt Q03591 19-330, looked up)
chain: EATFCDFPKINHGILYDEEKYKPFSQVPTGEVFYYSCEYNFVSPSKSFWTRITCTEEGWSPTPKCLRLCFFPFVENGHSESSGQTHLEGDTVQIICNTGYRLQNNENNISCVERGWSTPPKCRSTDTSCVNPPTVQNAHILSRQMSKYPSGERVRYECRSPYEMFGDEEVMCLNGNWTEPPQCKDSTGKCGPPPPIDNGDITSFPLSVYAPASSVEYQCQNLYQLEGNKRITCRNGQWSEPPKCLHPCVISREIMENYNIALRWTAKQKLYLRTGESAEFVCKRGYRLSSRSHTLRTTCWDGKLEYPTCAKR
notes: complement factor H-related protein 1 (FHR1), human, recombinant; Commercial recombinant protein; also called FHR1; source: bought: Novoprotein via Gentaur (recombinant)

Columns and labels:
Conditions in all cases: both partners purified
C3(H2O) = molecular target: T1, C3(H2O) (human, UniProt P01024 23-667; P01024 672-1663); experiment: ELISA; 10 µg/ml FHR5, CCPs 1-4, CCPs 3-7, CCPs 8-9 and alpha-1-antitrypsin immobilised, incubated with 5 µg/ml C3, C3(H2O) and C3b; detected with anti-human C3
T1 construct: complement C3 beta chain, human; complement C3 alpha chain, human; Same chains as C3; source: generated from purified human C3 (Merck) with ten freeze/thaw cycles
T1 sequence (P01024 23-667, chain 1 of 2): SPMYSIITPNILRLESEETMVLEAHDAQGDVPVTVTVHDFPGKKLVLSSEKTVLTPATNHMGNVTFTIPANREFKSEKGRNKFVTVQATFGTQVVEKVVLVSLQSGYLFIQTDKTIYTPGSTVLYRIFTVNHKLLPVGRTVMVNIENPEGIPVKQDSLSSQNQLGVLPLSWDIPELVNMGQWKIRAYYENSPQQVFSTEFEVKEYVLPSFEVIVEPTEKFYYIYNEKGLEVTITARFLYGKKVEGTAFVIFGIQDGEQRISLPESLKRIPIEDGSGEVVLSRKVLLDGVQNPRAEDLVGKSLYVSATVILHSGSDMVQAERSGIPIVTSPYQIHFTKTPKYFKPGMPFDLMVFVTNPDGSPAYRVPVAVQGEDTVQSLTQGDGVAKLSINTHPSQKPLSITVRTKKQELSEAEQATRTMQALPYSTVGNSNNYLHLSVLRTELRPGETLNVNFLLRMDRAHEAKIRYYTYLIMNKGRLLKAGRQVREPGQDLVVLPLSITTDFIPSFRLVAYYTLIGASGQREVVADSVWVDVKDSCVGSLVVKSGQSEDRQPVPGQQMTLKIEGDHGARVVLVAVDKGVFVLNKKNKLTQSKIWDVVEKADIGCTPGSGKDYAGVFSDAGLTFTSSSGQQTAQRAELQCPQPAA
T1 sequence (P01024 672-1663, chain 2 of 2): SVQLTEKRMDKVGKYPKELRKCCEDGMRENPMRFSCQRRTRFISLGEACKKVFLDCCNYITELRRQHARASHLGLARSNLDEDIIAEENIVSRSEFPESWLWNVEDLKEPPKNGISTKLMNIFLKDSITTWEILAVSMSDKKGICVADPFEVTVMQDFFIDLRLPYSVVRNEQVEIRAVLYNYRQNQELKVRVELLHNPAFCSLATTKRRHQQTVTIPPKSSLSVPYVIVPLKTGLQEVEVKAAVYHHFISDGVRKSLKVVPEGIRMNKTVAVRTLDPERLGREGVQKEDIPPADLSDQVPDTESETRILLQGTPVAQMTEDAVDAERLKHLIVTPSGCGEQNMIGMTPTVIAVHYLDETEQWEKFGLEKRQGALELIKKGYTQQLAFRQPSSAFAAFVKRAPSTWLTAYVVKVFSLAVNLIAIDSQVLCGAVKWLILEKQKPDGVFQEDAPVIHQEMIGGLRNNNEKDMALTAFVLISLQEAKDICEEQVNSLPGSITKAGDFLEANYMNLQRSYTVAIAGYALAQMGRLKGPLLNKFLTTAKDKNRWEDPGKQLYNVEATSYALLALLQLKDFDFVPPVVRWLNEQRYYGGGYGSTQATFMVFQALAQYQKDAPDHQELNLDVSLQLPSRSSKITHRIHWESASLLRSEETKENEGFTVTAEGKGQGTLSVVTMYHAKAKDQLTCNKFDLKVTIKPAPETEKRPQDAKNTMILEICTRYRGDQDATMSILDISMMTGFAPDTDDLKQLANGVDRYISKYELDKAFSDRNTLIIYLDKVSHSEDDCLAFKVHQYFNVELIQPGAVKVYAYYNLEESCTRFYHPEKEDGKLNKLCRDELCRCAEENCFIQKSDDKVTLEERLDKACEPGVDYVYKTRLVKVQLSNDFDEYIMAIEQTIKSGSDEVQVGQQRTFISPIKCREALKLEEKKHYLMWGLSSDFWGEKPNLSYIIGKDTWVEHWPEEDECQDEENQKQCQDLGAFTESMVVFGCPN

Purified human C3b = molecular target: T2, Purified human C3b (human, UniProt P01024 23-667; P01024 749-1663); experiment: ELISA; FHR5, CCPs 1-4, CCPs 3-7, CCPs 8-9 and HSA immobilised at 5 µg/ml, blocked with 4% BSA; 20 µg/ml C3b, iC3b, C3c or 10 µg/ml C3d added; detected with anti-human C3 or anti-human C3d
T2 construct: complement C3 beta chain, human; complement C3b alpha' chain, human; also called soluble C3b; fluid-phase C3b; source: bought: Merck (purified human)
T2 sequence (P01024 23-667, chain 1 of 2): as the sequence (P01024 23-667, chain 1 of 2) above
T2 sequence (P01024 749-1663, chain 2 of 2): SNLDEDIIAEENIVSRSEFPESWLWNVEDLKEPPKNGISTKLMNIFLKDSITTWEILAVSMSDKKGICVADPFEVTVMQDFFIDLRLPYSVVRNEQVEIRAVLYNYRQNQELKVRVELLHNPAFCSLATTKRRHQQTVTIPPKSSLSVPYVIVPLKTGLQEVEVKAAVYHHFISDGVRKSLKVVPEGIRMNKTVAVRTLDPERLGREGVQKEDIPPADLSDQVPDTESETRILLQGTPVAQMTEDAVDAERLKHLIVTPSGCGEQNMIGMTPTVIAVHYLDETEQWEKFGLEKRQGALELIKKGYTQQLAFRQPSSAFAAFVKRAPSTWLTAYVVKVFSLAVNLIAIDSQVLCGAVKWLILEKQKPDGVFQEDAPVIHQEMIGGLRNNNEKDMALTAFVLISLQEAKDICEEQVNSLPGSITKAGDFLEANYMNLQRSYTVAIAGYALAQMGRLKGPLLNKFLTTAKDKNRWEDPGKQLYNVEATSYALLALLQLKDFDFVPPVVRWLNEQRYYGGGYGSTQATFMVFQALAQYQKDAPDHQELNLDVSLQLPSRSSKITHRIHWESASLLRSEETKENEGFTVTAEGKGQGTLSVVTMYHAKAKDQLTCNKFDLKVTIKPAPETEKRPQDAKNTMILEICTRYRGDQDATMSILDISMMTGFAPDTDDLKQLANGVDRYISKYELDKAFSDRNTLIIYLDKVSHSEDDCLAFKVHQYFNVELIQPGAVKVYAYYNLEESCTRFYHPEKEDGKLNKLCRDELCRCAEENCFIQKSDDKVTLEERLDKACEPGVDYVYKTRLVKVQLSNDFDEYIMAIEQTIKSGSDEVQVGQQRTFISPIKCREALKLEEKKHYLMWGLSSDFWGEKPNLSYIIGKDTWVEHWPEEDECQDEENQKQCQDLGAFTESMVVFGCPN

Purified human factor H = molecular target: T3, Purified human factor H (human, UniProt P08603 19-1231); experiment: peptide or protein array; competition: printed ECM proteins incubated with 25 µg/ml FH with or without FHR1 (5, 25, 50 µg/ml) or FHR5 (0.5, 5, 20 µg/ml); bound FH detected with mAb A254 that does not cross-react with FHR1 and FHR5
T3 construct: complement factor H, human, 155-kDa serum glycoprotein, 20 CCP domains; also called FH; source: bought: Merck (purified human)

[1] = molecular target: B1; experiment: peptide or protein array; ECM proteins (0.5 mg/ml) printed on nitrocellulose-covered slides in triplicates, blocked with 4% BSA; incubated with FHR1 (5, 25, 50 µg/ml) or FHR5 (0.5, 5, 20 µg/ml); detected with goat anti-human FH or anti-FHR5 and Alexa-647 anti-goat IgG; signal above gelatin taken as binding
Human vitronectin = molecular target: B2; experiment: as above

B1
binding result (C3(H2O)): binds | binding result (Purified human C3b): binds

B2
binding result (Purified human factor H): binds | binding result [1]: binds

B3
binding result (Human vitronectin): binds
